Experimental findings from patent publication US10202584B2, “Red-shifted luciferase-luciferin pairs for enhanced bioluminescence” (The Regents of the University of California, priority 2016, dated 2019) are described below.

Holding throughout (assay): purified protein, by the assay type
Details in all cases: other: apparent, 100 pM enzyme, substrate 0.78 to 50 μM, assay buffer pH 6.0, mean ± s.d., n = 3, 37.0 °C

For data set [1], the system named is O=c1c(Cc2ccccc2)nc2c(-c3ccccc3)[nH]c(-c3ccccc3)cn1-2.
Protocol: (§1) The final concentrations of all enzymes were 100 pM. Substrate concentrations varied from 0.78 to 50 μM, and peak bioluminescence intensities at individual substrate concentrations were used to fit the Michaelis-Menten equation. Data are shown as mean and s.d. of three independent experiments.
(§2) DH10B cells containing corresponding pBAD plasmids were grown in 5 mL LB starter cultures containing ampicillin (100 μg/mL) at 37° C. and 250 rpm overnight. Each saturated overnight culture was diluted 100-fold into 2YT media containing the appropriate antibiotics and grown under the same conditions. When OD600 reached 0.7-0.9, the expression culture was induced with L-arabinose (0.2%, w/v %) and incubated at room temperature with shaking at 250 rpm for another 16 h. Cells were harvested by centrifugation at 4700 rpm for 15 min and lysed by sonication. The resulting cell lysate was clarified by centrifugation at 18,000 rpm for 30 min at 4° C. The supernatant was incubated with Ni-NTA agarose beads (Pierce) at 4° C. for 2 h. Agarose beads loaded to a plastic column were sequentially washed with 10 mL of wash buffer 1 (pH 8.0, 50 mM Tris HCl, 20 mM Imidazole, 300 mM NaCl, 1 mM DTT) and 10 mL of wash buffer 2 (pH 8.0, 50 mM Tris HCl, 50 mM Imidazole, 300 mM NaCl, 1 mM DTT), followed by elution with elution buffer (pH 8.0, 50 mM Tris HCl, 300 mM Imidazole, 300 mM NaCl, 1 mM DTT). Proteins were buffer-exchanged into Tris-HCl (50 mM, pH 7.4) containing 1 mM DTT using Thermo Scientific Snakeskin dialysis tubing, and next concentrated using 3-kDa Amicon Ultra Centrifugal Filters (EMD Millipore). Protein concentrations were determined using the Pierce Coomassie Bradford Protein Assay Kit (Thermo Fisher). For storage, glycerol was added to a final concentration of 50% (v/v) and the resultant mixtures were kept at −20° C.
(§3) A Synergy Mx Microplate Reader (BioTek) was used for all in vitro bioluminescence characterizations. For kinetics measurements, no emission filter or monochromator was used. […]
Data set [2] concerns O=c1c(Cc2ccccc2)nc2c([Se]c3ccccc3)[nH]c(-c3ccccc3)cn1-2.
Protocol: as §1, §2, §3
The test system of data set [3] is O=c1c(Cc2ccco2)nc2c(Cc3ccccc3)[nH]c(-c3ccccc3)cn1-2.
Protocol: as §1, §2, §3

As to “NanoLuc luciferase (Oplophorus gracihrostris-derived, parent, SEQ ID NO: 1) (Oplophorus gracilirostris; A31E/A60N/A81I/F95D/I117V/K70R/L54V/L99Q/M102K/N193R/P142E/Q151K/Q38R/Q45L/V71I/Y165I)”, the Michaelis-Menten constant (Km) is 5.3 ± 0.2 µM in data set [1], 17.8 ± 1.0 µM in data set [2] and 11.5 ± 0.6 µM in data set [3].

One may read the Km as the concentration of substrate that gives half-maximal velocity.
